Measured values published in patent CN114989295A.

B1: 抗MERS-CoV鼠单克隆抗体6E4 (antibody, V domains shown)
VH: EVDLSESLGGQVKVTGSLKLDEAASGSMHGGDVKEGASLWLWVRVTPEIELEWRDAQGVAFISAGESSTYRFTTSRDNARSDRYLQMSELRKLDTAFIYCGRYRVTLSTLQEYSWGQGDWVTTDA
VL: DIQETQTRSVLSAALGSRVTISCSMDIANYVNEYQWYQSPKPDFDVKLSIYEVLIYRSVRLQSGVPSRFSKKGSLDDYSLTISCFEPEDVEIYCNDCQILGSELPEFGDFTKIEILR
B2: 抗MERS-CoV鼠单克隆抗体7G5 (antibody, V domains shown)
VH: EVQGQVSGLKLVVEGASVLKSCTSTGFLSGMGLVMPGGSNHSWVQEVPEIVLEWSGDWSANYSQDGLITSKATASADTTDSTAYLQLSEFDSEDTAVSFSCASNWLMLYMASLNWGQGEDDTVQS
VL: DISLTRSPSTLSATPQESVSLSCKQLISSYLMWTQWYQSKSHESLELTEKVELIYSNSHLHTGIPFSFSGDDSGTDFFLKVNVNSTEDFGEYFCSCQDQNTSERGDFGQATKLLEK

Target: 重组MERS-CoV-S蛋白 (MERS-CoV) (UniProt K9N5Q8)
Experiment: indirect ELISA, hybridoma supernatant on coated MERS-S protein

UniProt K9N5Q8, sequence (K9N5Q8 324-644 limits assumed): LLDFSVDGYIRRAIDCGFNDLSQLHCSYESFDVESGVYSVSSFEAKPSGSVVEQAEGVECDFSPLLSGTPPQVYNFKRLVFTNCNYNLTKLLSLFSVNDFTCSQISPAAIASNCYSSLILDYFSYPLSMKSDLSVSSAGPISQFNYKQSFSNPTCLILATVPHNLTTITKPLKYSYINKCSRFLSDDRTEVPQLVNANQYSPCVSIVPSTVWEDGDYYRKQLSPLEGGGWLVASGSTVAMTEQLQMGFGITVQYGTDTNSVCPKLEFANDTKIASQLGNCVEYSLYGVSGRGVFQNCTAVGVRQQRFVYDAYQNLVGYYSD

Binder	效价 (titer (1:dilution))	敏感性
B1	256000	2.31 ng/mL
B2	256000	0.561 ng/mL
